Test results published in doi:10.1101/2025.08.01.667725 (bioRxiv, 2025).

Biological target: T1, FLAG-tagged full-length PU.1, purified (human, UniProt P17947 1-270)
T1 construct: PU.1 transcription factor, full length; also called FLAG-PU.1; purified PU.1; source: 293-ExpiF (Expi293TF) cells, transfected with pCAG, purified (FLAG M2 beads, anion exchange, size exclusion)
Experiment: MST; SMARCD2 SWIFT domain and PU.1; Kd model fit
Details: both partners purified

- Kd: 3.6 µM
B1: SMARCD2 SWIFT domain, purified from E. coli (domain or fragment, human)
chain: LTQKRKLRIYISNTFSPSKAEGDSAGTAGTPGGTPAGDKVASWELRVEGKLLDDPSKQKRKFSSFFKSLVIELDKELYGPDNHLVEWHRMPTTQETDGFQVKRPGDLNVKCTLLLMLDHQPPQYQHPDPIVINHVISVDPNDQKKTACYDIDVEVD
notes: SMARCD2, human, stretch of the SWIFT domain before the SWIB domain; the text gives aa185–312; also called SMARCD2 YEATS-like SWIFT domain; source: E. coli (pGOOD), purified
